In publication PMC6347702:

What was measured:
[1] = substrate: OC[C@H]1OC(O)[C@H](O)[C@@H](O)[C@@H]1O; assay: radiochemical kinase assay, recombinant enzyme; assay type: biochemical, Homo sapiens; details: ADP-Mg2+
[2] = substrate: OC[C@H]1OC(O)[C@H](O)[C@@H](O)[C@@H]1O; assay: spectrophotometric kinase assay, recombinant enzyme; assay type: biochemical, Homo sapiens; details: ATP-Mg2+

B1: ADP-glucokinase (∆50-hADPG) (Homo sapiens) (protein)
chain: VSPEGRLAAAWDALIVRPVRRWRRVAVGVNACVDVVLSGVKLLQALGLSPGNGKDHSILHSRNDLEEAFIHFMGKGAAAERFFSDKETFHDIAQVASEFPGAQHYVGGNAALIGQKFAANSDLKVLLCGPVGPKLHELLDDNVFVPPESLQEVDEFHLILEYQAGEEWGQLKAPHANRFIFSHDLSNGAMNMLEVFVSSLEEFQPDLVVLSGLHMMEGQSKELQRKRLLEVVTSISDIPTGIPVHLELASMTNRELMSSIVHQQVFPAVTSLGLNEQELLFLTQSASGPHSSLSSWNGVPDVGMVSDILFWILKEHGRSKSRASDLTRIHFHTLVYHILATVDGHWANQLAAVAAGARVAGTQACATETIDTSRVSLRAPQEFMTSHSEAGSRIVLNPNKPVVEWHREGISFHFTPVLVCKDPIRTVGLGDAISAEGLFYSEVHPHY
B1 was tested, and the Km [1] was 12.3 ± 1.3 µM.

B2: hexokinase 3 (hHK3) (Homo sapiens) (protein)
chain: MDSIGSSGLRQGEETLSCSEEGLPGPSDSSELVQECLQQFKVTRAQLQQIQASLLGSMEQALRGQASPAPAVRMLPTYVGSTPHGTEQGDFVVLELGATGASLRVLWVTLTGIEGHRVEPRSQEFVIPQEVMLGAGQQLFDFAAHCLSEFLDAQPVNKQGLQLGFSFSFPCHQTGLDRSTLISWTKGFRCSGVEGQDVVQLLRDAIRRQGAYNIDVVAVVNDTVGTMMGCEPGVRPCEVGLVVDTGTNACYMEEARHVAVLDEDRGRVCVSVEWGSFSDDGALGPVLTTFDHTLDHESLNPGAQRFEKMIGGLYLGELVRLVLAHLARCGVLFGGCTSPALLSQGSILLEHVAEMEDPSTGAARVHAILQDLGLSPGASDVELVQHVCAAVCTRAAQLCAAALAAVLSCLQHSREQQTLQVAVATGGRVCERHPRFCSVLQGTVMLLAPECDVSLIPSVDGGGRGVAMVTAVAARLAAHRRLLEETLAPFRLNHDQLAAVQAQMRKAMAKGLRGEASSLRMLPTFVRATPDGSERGDFLALDLGGTNFRVLLVRVTTGVQITSEIYSIPETVAQGSGQQLFDHIVDCIVDFQQKQGLSGQSLPLGFTFSFPCRQLGLDQGILLNWTKGFKASDCEGQDVVSLLREAITRRQAVELNVVAIVNDTVGTMMSCGYEDPRCEIGLIVGTGTNACYMEELRNVAGVPGDSGRMCINMEWGAFGDDGSLAMLSTRFDASVDQASINPGKQRFEKMISGMYLGEIVRHILLHLTSLGVLFRGQQIQRLQTRDIFKTKFLSEIESDSLALRQVRAILEDLGLPLTSDDALMVLEVCQAVSQRAAQLCGAGVAAVVEKIRENRGLEELAVSVGVDGTLYKLHPRFSSLVAATVRELAPRCVVTFLQSEDGSGKGAALVTAVACRLAQLTRV
Work on B2 yielded a Km [2] of 12.2 ± 1 µM.

B3: hexokinase 2 (∆28-hHK2) (Homo sapiens) (protein)
chain: MRLSDETLLEISKRFRKEMEKGLGATTHPTAAVKMLPTFVRSTPDGTEHGEFLALDLGGTNFRVLWVKVTDNGLQKVEMENQIYAIPEDIMRGSGTQLFDHIAECLANFMDKLQIKDKKLPLGFTFSFPCHQTKLDESFLVSWTKGFKSSGVEGRDVVALIRKAIQRRGDFDIDIVAVVNDTVGTMMTCGYDDHNCEIGLIVGTGSNACYMEEMRHIDMVEGDEGRMCINMEWGAFGDDGSLNDIRTEFDQEIDMGSLNPGKQLFEKMISGMYMGELVRLILVKMAKEELLFGGKLSPELLNTGRFETKDISDIEGEKDGIRKAREVLMRLGLDPTQEDCVATHRICQIVSTRSASLCAATLAAVLQRIKENKGEERLRSTIGVDGSVYKKHPHFAKRLHKTVRRLVPGCDVRFLRSEDGSGKGAAMVTAVAYRLADQHRARQKTLEHLQLSHDQLLEVKRRMKVEMERGLSKETHASAPVKMLPTYVCATPDGTEKGDFLALDLGGTNFRVLLVRVRNGKWGGVEMHNKIYAIPQEVMHGTGDELFDHIVQCIADFLEYMGMKGVSLPLGFTFSFPCQQNSLDESILLKWTKGFKASGCEGEDVVTLLKEAIHRREEFDLDVVAVVNDTVGTMMTCGFEDPHCEVGLIVGTGSNACYMEEMRNVELVEGEEGRMCVNMEWGAFGDNGCLDDFRTEFDVAVDELSLNPGKQRFEKMISGMYLGEIVRNILIDFTKRGLLFRGRISERLKTRGIFETKFLSQIESDCLALLQVRAILQHLGLESTCDDSIIVKEVCTVVARRAAQLCGAGMAAVVDRIRENRGLDALKVTVGVDGTLYKLHPHFAKVMHETVKDLAPKCDVSFLQSEDGSGKGAALITAVACRIREAGQR
B3 was tested, and the Vmax [2] was 35.4 µmol/min/mg.
